Measured values from patent US20220347267A1, “METHODS TO IMPROVE PATIENT RESPONSE TO IMMUNE CHECKPOINT INHIBITORS AND FUNCTIONAL TESTS TO PREDICT RESPONSE” (Biomarker Strategies, LLC, priority 2019, published 2022).

Experiments:
Assay in all cases: PD-L1 western blot after modulators (EM and MTAs)
Assay type in all cases: cell-based, human
A253 cells = details: Head and neck A253, 30 minutes, 3 hours, 24 hours
Source text: (§1) Cell lines were acquired from ATCC, Sigma, or DSMZ. Human non-small cell lung carcinoma (NSCLC) cell lines H292 (ATCC no. CRL-1848.), H1299 (ATCC no. CRL-5803), H520 (ATCC no. CRL-5811), CALU6 (ATCC no. HTB-56), H1975 (ATCC no. CRL-5908), H460 (ATCC no. HTB-177), H2126 (ATCC no. CCL-256), H1650 (ATCC no. CRL-5883), and H2087 (ATCC no. CRL-5922) were used for this experiment along with head and neck squamous cell carcinoma (HNSCC) cell lines BHY (DSMZ ACC 404), CAL27 (ATCC no. CRL-2095), KYSE410 (Sigma), and A253 (ATCC no. HTB-41), melanoma cell lines A375 (ATCC no. CRL-1619), COL0853 (Sigma), and MM127 (Sigma) pancreatic cancer cell lines BXPC3 (ATCC no. CRL-1687), colorectal cancer cell lines […], HCT116 (ATCC no. CCL-247EMT), and breast cancer cell lines BT549 (ATCC no. HTB-122), BT20 (ATCC no. HTB-19), and T47D (ATCC no. HTB-133). Cells were maintained in manufacturer-recommended conditions at 37° C. inside humidified 5% CO2 incubators. Sub-cultivation and harvesting for all cell lines were performed using Accutase (GIBCO Life Technologies; cat. no. A1110501) at 37° C. for 10 minutes. Cell viability was measured using trypan blue exclusion staining in conjunction with the Countess II Automated Cell Counter (Thermo Fischer Scientific; cat. no. AMQAX1000). Measurements were made in duplicate and the average number of viable cells was recorded prior to experiments.
(§2) Enhancer Molecule and Therapies: IFNγ, (10 ng/ml; Sigma Aldrich, cat.no 11040596001), TNFα (10 ng/ml; BD Biosciences cat. no. 554618), Osimertinib (100 ng/ml; Selleckchem cat.no. S7297), Everolimus (100 ng/ml; Selleckchem cat.no S1120), GSK458 (10 ng/ml; Selleckchem cat. no. S2658), TNFb (50 ng/ml; Sigma Aldrich cat. no.), GSK795 (1,000 ng/ml; Selleckchem cat. no. S7492), IL-12 (50 ng/ml; Sigma Aldrich SRP3073), GM-CSF (50 ng/ml; Sigma Aldrich cat. no. G5035), IL-1a (1 ng/ml; Sigma Aldrich cat. no. 12778-), IL-6 (50 ng/ml; Sigma Aldrich), IL-17 (100 ng/ml; Sigma Aldrich cat. no. SRP3080), TGFb (1 ng/ml; Sigma Aldrich cat. no. T7039), and IL-10 (50 ng/ml; Sigma Aldrich cat. no. SRP3071) were administered to cell lines for various times including 30 minutes, 3 hour, and 24 hour time intervals prior to cell lysis and protein extraction.
(§3) To determine the effects of the aforementioned molecules on the modulation of PD-L1, we selected various NSCLC, HNSCC, breast cancer, melanoma, colorectal cancer, and pancreatic cancer cell lines as examples. Other diseases or cell lines could be used readily as could more complex samples such as cells isolated from xenografts and clinical samples. Cells were plated, for three different time points (30 minutes, 3 hours, and 24 hours), inside 6-well petri dishes with 2 mL of appropriate medium. Plates were incubated for 24 hours in 5% CO2 incubators at 37° C. After 24 hours, each 6-well plate was washed with PBS (Gibco Life Technologies, cat. no. 10010023) followed by fresh media being added along with each cell line's vehicle control or appropriate modulator for each specific time point, and were placed in CO2 incubators until their modulation time point was reached. Other conditions can be readily used, such as processing on automated systems such as SnapPath. At the end of each time point, while keeping plates on ice, cell lysis was conducted by aspirating culture medium from each plate, washing of each plate three times with 5 ml of cold PBS (Gibco Life Technologies, cat. no. 10010023) and culminated with the addition of cold 1× lysis buffer containing (Cell Signaling, cat. no. 9803 S) protease inhibitor cocktail (Cell Signaling, cat. no. 5871S), phosphatase inhibitor cocktail (Cell Signaling, cat. no. 5870S), and PMSF (Fisher Scientific, cat. no. ICN19538101). Plates were then placed on ice for ten minutes, swirling each plate intermittently. Aliquots of protein lysates were prepared and then stored at −80° C. until protein quantification and Western blot analysis was to be conducted. […]

A375 cells = details: Melanoma A375, 30 minutes, 3 hours, 24 hours
Source text: as §1, §2, §3

BHY cells = details: Head and neck BHY, 30 minutes, 3 hours, 24 hours
Source text: as §1, §2, §3

BT20 cells = details: Breast BT20, 30 minutes, 3 hours, 24 hours
Source text: as §1, §2, §3

BxPC3 cells = details: Pancreatic BxPC3, 30 minutes, 3 hours, 24 hours
Source text: as §1, §2, §3

CAL27 cells = details: Head and neck CAL27, 30 minutes, 3 hours, 24 hours
Source text: as §1, §2, §3

Calu6 cells = details: NSCLC Calu6, 30 minutes, 3 hours, 24 hours
Source text: as §1, §2, §3

H1299 cells = details: NSCLC H1299, 30 minutes, 3 hours, 24 hours
Source text: as §1, §2, §3

H1975 cells = details: NSCLC H1975, 30 minutes, 3 hours, 24 hours
Source text: as §1, §2, §3

H2087 cells = details: NSCLC H2087, 30 minutes, 3 hours, 24 hours
Source text: as §1, §2, §3

H520 cells = details: NSCLC H520, 30 minutes, 3 hours, 24 hours
Source text: as §1, §2, §3

KYSE410 cells = details: Head and neck KYSE410, 30 minutes, 3 hours, 24 hours
Source text: as §1, §2, §3

Measured: PD-L1 Response

B1: IFNγ: human IFNγ, modulator (10 ng/ml; Sigma Aldrich) (protein, UniProt P01579 24-161, looked up)
Interferon gamma: QDPYVKEAENLKKYFNAGHSDVADNGTLFLGILKNWKEESDRKIMQSQIVSFYFKLFKNFKDDQSIQKSVETIKEDMNVKFFNSNKKKRDDFEKLTNYSVTDLNVQRKAIHELIQVMAELSPAAKTGKRKRSQMLFRG
Up: all assays above
